For experiment [1], the target named is T1, human TGF-beta 1 (R&D Systems, Cat # 240-B/CF) (human, UniProt P01137 279-390).
T1 construct: They match K95 and residues 58-61 of mature numbering; also called TGF-β1; mature TGF-β1
The experiment is described as follows: Biacore SPR, calculated koff/kon. On the procedure:
(§1) Alternate methods of measuring kinetic constants are known, for example: affinity of a binding composition for human TGF-beta 1 (R&D Systems, Cat #240-B/CF), TGF-beta 2 (RDI, Cat # RDI-1035) and TGF-beta 3 (RDI, Cat # RDI-1036/CF) is measured using a BlAcore® 2000 instrument. The BIAcore® utilizes the optical properties of surface plasmon resonance to detect alteration in protein concentration of interacting molecules within a dextran biosensor matrix. Except as noted, all reagents and materials are purchased from BIAcore® AB (Upsala, Sweden). All measurements are performed at room temperature. Samples are dissolved in HBS-EP buffer (150 mM sodium chloride, 3 mM EDTA, 0.01% (w/v) surfactant P-20, and 10 mM HEPES, pH7.4). Recombinant Protein A is immobilized on all four flow cells of a CM4 sensor chip at a level of 400-450 response units (RUs) using an amine coupling kit.
(§2) Binding is evaluated using multiple analytical cycles. Each cycle is performed at a flow rate of 50 μL/minute and consists of the following steps: injection of 12 μL of an antibody binding composition at 0.5 μg/mL, injection of 250 μL of TGF-beta 1 (starting at 5 nM and using two-fold serial dilutions to 0.13 nM for each cycle, with two injections for each concentration) followed by either a short (5 minutes) or long (120 minutes) delay for dissociation, and regeneration using two injections of 50VL of 10 mM glycine hydrochloride, pH1.5. Association and dissociation rates for each cycle are determined by fitting of the biosensor data using to a simple association model using ClampXP (Center for Biomolecular Interaction Analysis, Univ. of Utah) to extract the kₒₙ and koff rate constants; the equilibrium binding constant Kd is calculated using the relationship Kd=koff/kₒₙ. Model data for invention compositions are in Table 3 shown below.

For experiment [2], the target named is T2, human TGF-beta 3 (RDI, Cat # RDI-1036/CF) (human, UniProt P10600 301-412).
T2 construct: Bought recombinant protein; also called TGF-β3; TGF-p3
T2 sequence (looked up): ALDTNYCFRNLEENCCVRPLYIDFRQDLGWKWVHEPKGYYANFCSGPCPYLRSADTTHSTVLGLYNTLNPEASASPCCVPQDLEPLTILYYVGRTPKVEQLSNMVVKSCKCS
As to the kind of experiment: ratio of Biacore Kd for TGF-β3 to Kd for TGF-β1. The method, then: (§3) Affinities of binding composition mAbs for TGF-p3 are determined using BIAcore methods. All measurements are performed at room temperature. Samples are dissolved in HBS-EP buffer (150 mM sodium chloride, 3 mM EDTA, 0.01% (w/v) surfactant P-20, and 10 mM HEPES, pH7.4). Recombinant Protein A is immobilized on four flow cells of a CM4 sensor chip at a level of 400-450 response units (RUs) using an amine coupling kit. Binding is evaluated over multiple analytical cycles. Each cycle is performed at a flow rate of 100 μL/minute consisting of the following steps: injection of 15 μL of an antibody binding composition at 0.5 μg/mL, injection of 250 μL of TGF-β3 (starting at 5 nM and using two-fold serial dilutions to 0.13 nM for each cycle, with two injections for each concentration) followed by a short (5 minutes) delay for dissociation, and regeneration using two injections of 50VL of 10 mM glycine hydrochloride, pH1.5.
(§4) Affinities are determined based upon the equilibrium signal as reached at varying TGF-β3 concentrations by measuring the average signal during the last 10 seconds of the TGF-β3 injections, and then fitting the resulting signals at all of the TGF-β3 concentrations to a simple binding equilibrium model in SCRUBBER (Center for Biomolecular Interaction Analysis, Univ. of Utah). Model data determined for tested human mab composition of the invention of Kd and specificity calculated by dividing the Kd for TGF-β3 binding by the Kd for TGF-β1 binding (herein) is shown below in Table 5.
In general terms: SPR reads the build-up and loss of mass on a sensor chip optically.

A further experiment deals with T3, latent TGF-beta 1 (UniProt P01137 30-390, limits assumed).
T3 construct: Latent complex (pro-peptide with mature TGF-beta 1); also called Latent TGF-β1; latent form of TGF-beta 1
T3 sequence (P01137 30-390 limits assumed): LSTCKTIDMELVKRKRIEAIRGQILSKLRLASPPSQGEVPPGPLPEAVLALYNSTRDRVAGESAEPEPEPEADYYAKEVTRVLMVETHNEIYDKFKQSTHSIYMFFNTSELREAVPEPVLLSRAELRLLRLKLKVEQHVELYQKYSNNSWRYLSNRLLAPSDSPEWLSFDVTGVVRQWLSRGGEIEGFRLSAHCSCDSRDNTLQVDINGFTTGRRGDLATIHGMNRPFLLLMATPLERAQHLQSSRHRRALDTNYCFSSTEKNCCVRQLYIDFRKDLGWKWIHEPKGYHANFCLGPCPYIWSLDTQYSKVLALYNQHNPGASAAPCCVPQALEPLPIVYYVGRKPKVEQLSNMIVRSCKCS
The experiment is described as follows: Biacore SPR, mAb captured on Protein A, 5 nM ligand injected; stoichiometry from captured signals. The method, then: (§5) BIAcore methods are used to determine the ability of invention mAb compositions to bind other entities, specifically the latent form of TGF-beta 1 or TGF-beta 3. All measurements are performed at room temperature. Samples are dissolved in HBS-EP buffer (150 mM sodium chloride, 3 mM EDTA, 0.01% (w/v) surfactant P-20, and 10 mM HEPES, pH7.4). Recombinant Protein A is immobilized on all four flow cells of a CM4 sensor chip at a level of 400-450 response units (RUs) using an amine coupling kit.
(§6) Binding is evaluated using multiple analytical cycles. Each cycle is performed at a flow rate of 100 μL/minute consisting of the following steps: injection of 15 μL of an antibody binding composition at 1 μg/mL, injection of 250 μL of either 5 nM TGF-beta 1, 5 nM latent TGF-beta 1, or 5 nM TGF-beta 3 followed by a short delay (5 min) for dissociation, and regeneration using two injections of 50 μL of 10 mM glycine hydrochloride, pH1.5. The amount of signal after capturing first the Mab, and then the ligand, are determined using the instrument control software. Since the signal is proportional to the mass of protein captured, the stoichiometry of the captured ligand is readily calculable (Table 4).

In experiment [3] the target is T2, human TGF-beta 3 (RDI, Cat # …). Described as above. The method, then:
as §5, §6

For experiment [4], the target named is T1, human TGF-beta 1 (R&D Systems, Cat # …). The description is as above. The method, then: as §5, §6
The target of experiment [5] is T2, human TGF-beta 3 (RDI, Cat # …). The experiment is described as follows: Biacore SPR, equilibrium fit, mAb captured on Protein A, TGF-β3 injected. On the procedure: as §3, §4
Experiment [6] concerns the target T1, human TGF-beta 1 (R&D Systems, Cat # …). As to the kind of experiment: cell-based or functional assay.
The target is the same in experiment [7]. As to the kind of experiment: Biacore SPR, mAb captured on Protein A, TGF-beta 1 injected. On the procedure: as §1, §2
The target is the same in experiment [8]. As to the kind of experiment: KinExA 3000, equilibrium, Fab in solution. On the procedure:
(§7) A KinExA 3000 instrument (Sapidyne Inst. Inc.) is used to measure binding kinetics. Briefly, an antigen is covalently coupled to alzactone beads and the binding of a free Fab binding composition of the invention to the beads is detected on the instrument. […] After the incubation, free Fab in each equilibrated sample is determined on the KinExA 3000 according to the manufacturer's instructions. Kd values are determined using KinExA 3000 software.

For experiment [9] the target is unchanged. As to the kind of experiment: calculated from KinExA Kd and kon. The method, then: as §7
(§8) To measure kₒₙ, individual Fabs at 2 nM are mixed with 0-240 nM of antigen using the injection method according to the manufacturer's instructions, and the unbound Fab is detected. The resulting data is used to calculate the kₒₙ with KinExA 3000 software. The koff is calculated by using the formula Kd=koff/kₒₙ.

For experiment [10] the target is unchanged. As to the kind of experiment: KinExA 3000, Fab in solution, antigen on beads. The method, then: as §7, §8
(A kinetic exclusion assay measures how much of one partner remains free in solution.)

The source of these data is patent US20080050375A1 (Eli Lilly, published 2008).

T1 sequence (P01137 279-390 limits assumed): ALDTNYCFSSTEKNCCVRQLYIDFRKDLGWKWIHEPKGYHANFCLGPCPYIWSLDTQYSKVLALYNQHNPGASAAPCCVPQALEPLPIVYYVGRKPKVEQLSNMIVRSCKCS

B1: mAb 21D1 (antibody, human IgG4 S228P, kappa, V domains shown)
VH: QVQLVQSGAEVKKPGASVKVSCKASGYTFTDYNIHWVRQAPGQGLEWMGYIYPYDGETGYNQKFKSRVTMTTDTSTSTAYMELRSLRSDDTAVYYCARGYRWFAYWGQGTLVTVSS
VL: DIQMTQSPSSLSASVGDRVTITCRASSSVPYMHWFQQKPGKAPKSLIYATSNPAYGVPSRFSGSGSGTDFTLTISSLQPEDFATYYCQQWDLNPPAFGQGTKLEIKR
notes: Full-length IgG4 antibody; also called LA307-21D1
As for B1, the figures for the Kd in experiment [1] and in experiment [5] were under 0.5 pM and 4900 pM, respectively. Besides, the “Specificity (Kd, β3/Kd, β1)” value in [2] amounted to 9800 fold. Besides, the “Stoichiometry of ligand binding” value in the experiment with latent TGF-beta 1 stood at 0.05; in [3], 0.16; in experiment [4], 1.29. The “Fold Improvement in IC50 relative to mAb2471 (HT-2 cell proliferation assay)” value in experiment [6] is 107 fold. In experiment [7], the koff is under 6e-06 s⁻¹. Also, in experiment [7], the kon came to 1.3e+07 M⁻¹ s⁻¹.

B2: Fab DM4 (Fab, V domains shown)
VH: QVQLVQSGAEVKKPGASVKVSCKASGYDFTDYNIHWVRQAPGQGLEWMGYIYPYDGETGYNQKFKSRVTMTTDTSTSTAYMELRSLRSDDTAVYYCARGYRWLAYWGQGTLVTVSS
VL: DIQMTQSPSSLSASVGDRVTITCRASSSVSYMHWYQQKPGKAPKPLIYATSNLAYGVPSRFSGSGSGTDFTLTISSLQPEDFATYYCQQWDLNPPAFGQGTKLEIK
notes: Fab with human constant regions (kappa light chain)
B2 had a Kd in [8] of 1.2 pM. For the same molecule, in experiment [9], the koff was 5.1e-06 s⁻¹. Also, the kon in experiment [10] stood at 4.2e+06 M⁻¹ s⁻¹.

B3: Fab 21D1 (Fab, V domains shown)
VH: QVQLVQSGAEVKKPGASVKVSCKASGYTFTDYNIHWVRQAPGQGLEWMGYIYPYDGETGYNQKFKSRVTMTTDTSTSTAYMELRSLRSDDTAVYYCARGYRWFAYWGQGTLVTVSS
VL: DIQMTQSPSSLSASVGDRVTITCRASSSVPYMHWFQQKPGKAPKSLIYATSNPAYGVPSRFSGSGSGTDFTLTISSLQPEDFATYYCQQWDLNPPAFGQGTKLEIK
notes: Fab with human constant regions (kappa light chain) from M13 expression vectors
Molecule B3 yielded a dissociation constant Kd in [8] of 0.9 pM. In addition, the koff in experiment [9] was 3.4e-06 s⁻¹. In experiment [10], the kon was found to be 4e+06 M⁻¹ s⁻¹.

B4: Fab 23A3 (Fab, V domains shown)
VH: QVQLVQSGAEVKKPGASVKVSCKASGYDFTDYNMVWVRQAPGQGLEWMGSIYPYDGETGYNQKFKSRVTMTTDTSTSTAYMELRSLRSDDTAVYYCARGYRAFEYWGQGTLVTVSS
VL: DIQMTQSPSSLSASVGDRVTITCRASSSVPYMHWYQQKPGKAPKLLIYATSNPAYGVPSRFSGSGSGTDFTLTISSLQPEDFATYYCQQWDLNPPAFGQGTKLEIK
notes: as for B2
For the molecule B4, in experiment [8], the Kd was 4 pM. For the same molecule, the off-rate constant (koff) in experiment [9] was 1.9e-05 s⁻¹. Moreover, the kon in experiment [10] is 4.8e+06 M⁻¹ s⁻¹.

B5: mAb 23A3 (antibody, IgG4, V domains shown)
VH: QVQLVQSGAEVKKPGASVKVSCKASGYDFTDYNMVWVRQAPGQGLEWMGSIYPYDGETGYNQKFKSRVTMTTDTSTSTAYMELRSLRSDDTAVYYCARGYRAFEYWGQGTLVTVSS
VL: DIQMTQSPSSLSASVGDRVTITCRASSSVPYMHWYQQKPGKAPKLLIYATSNPAYGVPSRFSGSGSGTDFTLTISSLQPEDFATYYCQQWDLNPPAFGQGTKLEIK
On to B5, for which the Kd in experiment [1] is 0.8 pM; in experiment [5], 660 pM. In [2], the “Specificity (Kd, β3/Kd, β1)” value came out at 1050 fold. For the same molecule, the “Stoichiometry of ligand binding” value with latent TGF-beta 1 was 0.07; in experiment [3], 1.26; in [4] it was 1.63. In [6], the “Fold Improvement in IC50 relative to mAb2471 (HT-2 cell proliferation assay)” value was 234 fold. Moreover, in experiment [7], the koff came out at 1e-05 s⁻¹. This molecule returned a kon in experiment [7] of 1.9e+07 M⁻¹ s⁻¹.

B6: mAb DM4 (antibody, human IgG4 S228P, kappa, V domains shown)
VH: QVQLVQSGAEVKKPGASVKVSCKASGYDFTDYNIHWVRQAPGQGLEWMGYIYPYDGETGYNQKFKSRVTMTTDTSTSTAYMELRSLRSDDTAVYYCARGYRWLAYWGQGTLVTVSS
VL: DIQMTQSPSSLSASVGDRVTITCRASSSVSYMHWYQQKPGKAPKPLIYATSNLAYGVPSRFSGSGSGTDFTLTISSLQPEDFATYYCQQWDLNPPAFGQGTKLEIKR
notes: Full-length IgG4 antibody; also called LA307-DM4
In the case of B6, the equilibrium dissociation constant (Kd) is 0.9 pM in experiment [1] and 530 pM in [5]. Besides, the “Specificity (Kd, β3/Kd, β1)” value in experiment [2] came to 621 fold. Further, the “Stoichiometry of ligand binding” value with latent TGF-beta 1 worked out at 0.03; in experiment [4] it was 1.55. For the same molecule, the “Fold Improvement in IC50 relative to mAb2471 (HT-2 cell proliferation assay)” value in [6] was 391 fold. In experiment [7], this molecule came in with a koff of 1.4e-05 s⁻¹. This molecule yielded a kon in [7] of 1.6e+07 M⁻¹ s⁻¹.

B7: Fab DM7 (Fab, V domains shown)
VH: QVQLVQSGAEVKKPGASVKVSCKASGYDFTDYNMHWVRQAPGQGLEWMGYIYPYDGETGYNQKFKSRVTMTTDTSTSTAYMELRSLRSDDTAVYYCARGYRWLYYWGQGTLVTVSS
VL: DIQMTQSPSSLSASVGDRVTITCRASSSVSYMHWYQQKPGKAPKPLIYATSNLAKGVPSRFSGSGSGTDFTLTISSLQPEDFATYYCQQWDLNPPAFGQGTKLEIK
notes: as for B2
B7 came in with a Kd in [8] of 0.5 pM. In [9], the koff is 2.3e-06 s⁻¹. The kon in [10] worked out at 4.5e+06 M⁻¹ s⁻¹.

One may read the Kd as the constant that tells how readily two partners part at equilibrium. In general, koff refers to the first-order rate constant of dissociation. In general, kon refers to the second-order rate constant of association. Low readings indicate slow association, high ones fast association.
